The series has as its target NF-kB p50 (UniProt P19838 1-433). The experiment in a line: EMSA. Background: Mobility shift assays separate free from complexed probe on a gel.

Experimental findings from publication PMC2790157 are described below.

Chain of NF-kB p50 (P19838 1-433): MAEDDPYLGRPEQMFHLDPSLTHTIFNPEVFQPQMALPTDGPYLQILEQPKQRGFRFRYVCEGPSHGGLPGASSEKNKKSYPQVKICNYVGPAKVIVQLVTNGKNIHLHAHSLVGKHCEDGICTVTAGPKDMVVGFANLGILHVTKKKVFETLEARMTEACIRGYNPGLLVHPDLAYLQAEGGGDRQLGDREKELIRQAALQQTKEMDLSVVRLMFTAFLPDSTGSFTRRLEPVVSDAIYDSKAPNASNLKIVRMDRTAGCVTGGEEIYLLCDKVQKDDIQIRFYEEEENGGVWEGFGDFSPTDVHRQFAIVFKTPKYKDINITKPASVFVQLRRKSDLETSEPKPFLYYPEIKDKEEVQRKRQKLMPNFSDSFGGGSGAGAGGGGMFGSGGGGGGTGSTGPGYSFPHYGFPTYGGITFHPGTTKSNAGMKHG

B1: ING2 promoter putative NF-kB site (dsDNA)
DNA 1: CGCCGAGGGGATCCCCACTGCT
DNA 2: AGCAGTGGGGATCCCCTCGGCG
For B1, the binding result is “binds”.

B2: NF-kB consensus (dsDNA)
DNA 1: AGTTGAGGGGACTTTCCCAGGC
DNA 2: GCCTGGGAAAGTCCCCTCAACT
For B2, the binding result is given as “binds”.
